Measurements taken from publication PMC6167325, “Outward open conformation of a Major Facilitator Superfamily multidrug/H^+ antiporter provides insights into switching mechanism” (Nature Communications, 2018).

Target: T1, MdfA, major facilitator superfamily (MFS) drug/H+ antiporter from Escherichia coli (Escherichia coli, UniProt P0AEY8)
T1 construct: MdfA, multidrug/H+ antiporter of E. coli; wild type; the final model of the complex holds residues Gln14-Lys400; One complex in the asymmetric unit; also called MFS-MDR transporter; source: purified
T1 sequence (P0AEY8 whole entry, the tested form may be a part): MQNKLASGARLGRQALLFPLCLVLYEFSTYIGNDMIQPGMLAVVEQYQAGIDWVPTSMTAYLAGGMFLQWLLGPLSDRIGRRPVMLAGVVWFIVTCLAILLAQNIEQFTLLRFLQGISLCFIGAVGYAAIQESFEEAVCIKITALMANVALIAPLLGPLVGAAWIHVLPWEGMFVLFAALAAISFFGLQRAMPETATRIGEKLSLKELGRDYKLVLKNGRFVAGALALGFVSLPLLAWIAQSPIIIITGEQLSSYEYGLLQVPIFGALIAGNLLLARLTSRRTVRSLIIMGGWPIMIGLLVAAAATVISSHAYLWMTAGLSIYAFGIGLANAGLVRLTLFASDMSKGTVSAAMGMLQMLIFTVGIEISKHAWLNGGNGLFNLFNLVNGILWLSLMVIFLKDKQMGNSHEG
Test: crystal structure; co-crystals of MdfA in complex with the Fab fragment grown in the lipidic cubic phase; 3.4 Å; space group P6(1)22, one complex in the asymmetric unit; data at 100 K
Conditions: both partners purified

B1: Fab YN1074 (Fab, V domains shown)
VH: EVQLKESGPGLVAPSQSLSITCTVSGFSFSIYGLHWVRQPPGKGLEWLGMIWGGGRTDYNSALKSRLSISKDNSKSQVFLKMKSLQTDDTAMYYCARNSGYGNLAYWGQGTLVTVSA
VL: DIVMTQSPSSLSASLGERVSLTCRASQDIGYSLNWLQQEPDGTIKRLIYATSNLDSGVPKRFSGSRSGSDYSLTISSLESEDFVDYYCLQYASSPYTFGGGTKLEIK
notes: the model holds residues Leu4-Pro216; the model holds residues Asp1-Arg211; also called Fab fragment
  binding result: binds
